{"source": "paper PMC11040147", "assay_in_all_cases": "EMSA", "key": {"SF3B4 [1]": {"molecular_target": "T1, SF3B4 (human? (HeLa cDNA), UniProt Q15427 1-424)", "T1 sequence (Q15427 whole entry)": "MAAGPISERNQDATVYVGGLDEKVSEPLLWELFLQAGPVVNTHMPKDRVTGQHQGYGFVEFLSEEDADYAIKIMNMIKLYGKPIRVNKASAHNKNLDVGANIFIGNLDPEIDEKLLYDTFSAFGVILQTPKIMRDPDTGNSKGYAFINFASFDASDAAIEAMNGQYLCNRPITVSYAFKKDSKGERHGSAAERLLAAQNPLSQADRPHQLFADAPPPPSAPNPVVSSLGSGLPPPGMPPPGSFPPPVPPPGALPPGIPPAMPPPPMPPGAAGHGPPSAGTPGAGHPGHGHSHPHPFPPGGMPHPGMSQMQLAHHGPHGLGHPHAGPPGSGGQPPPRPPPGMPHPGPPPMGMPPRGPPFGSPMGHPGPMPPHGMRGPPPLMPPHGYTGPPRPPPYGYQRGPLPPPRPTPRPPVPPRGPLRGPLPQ"}, "SF3B4 [2]": {"molecular_target": "T1, SF3B4", "remark": "listed apart in the source"}, "SF3B4 [3]": {"molecular_target": "T1, SF3B4", "remark": "listed apart in the source"}}, "note": "Like-named read-outs stand apart in the source and are kept apart here.", "data": [{"binder": "GGTTAGGGTTAGGGTTAGGGTTAGGGTTAG (structured_DNA)", "note": "[hTelo]", "values": [{"measurement": "binding result", "setting": "SF3B4 [1]", "value": "binds"}]}, {"binder": "AGAGUGAAGUCUGAAGCGCUGAG (ssRNA)", "note": "[PPP6R2-mut]", "values": [{"measurement": "binding result", "setting": "SF3B4 [2]", "value": "no binding"}]}, {"binder": "GGGAGGUGGGAGCCGAGGGUGGG (structured_RNA)", "note": "[G4-INPPL1]", "values": [{"measurement": "binding result", "setting": "SF3B4 [3]", "value": "binds"}]}]}
